According to patent US8414892:

Legend:
[1] = biological target: HLA class I (HLA A, B, C) (human); assay: indirect immunofluorescence
[2] = biological target: HLA class I (HLA A, B, C) (human); assay: indirect immunofluorescence, U2OS cells
[3] = biological target: HLA class I (HLA A, B, C) (human); assay: indirect immunofluorescence, U2OS cells recultured at 37 C after antibody binding
[4] = biological target: MOPC 315; assay: ELISA, MoAb coated
[5] = biological target: MOPC 104E; assay: ELISA, MoAb coated
[6] = biological target: MoAb R24; assay: ELISA, MoAb coated
[7] = biological target: FCOPC21; assay: ELISA, MoAb coated
[8] = biological target: MOPC 21; assay: ELISA, MoAb coated
[9] = biological target: HOPC-1; assay: ELISA, MoAb coated
[10] = biological target: TIB114; assay: ELISA, MoAb coated
[11] = biological target: UJ 13A; assay: ELISA, MoAb coated
[12] = biological target: MoAb 3F8; assay: ELISA, MoAb coated
[13] = biological target: monoclonal antibody 8H9; assay: FACS inhibition, 5 ug/ml 8H9 on LAN-1 cells
[14] = biological target: monoclonal antibody 8H9; assay: FACS inhibition, 5 ug/ml 8H9 on HTB-82 cells
[15] = biological target: monoclonal antibody 8H9; assay: ELISA, MoAb coated; ++ = OD 1~2
[16] = biological target: 8H9 scFv-human gamma1-CH2-CH3 chimeric antibody (human); assay: FACS inhibition, 5 ug/ml 8H9-scFv-Fc on HTB82 cells

monoclonal antibody 8H9, sequence (VH, as listed by the source limits assumed, chain 1 of 2): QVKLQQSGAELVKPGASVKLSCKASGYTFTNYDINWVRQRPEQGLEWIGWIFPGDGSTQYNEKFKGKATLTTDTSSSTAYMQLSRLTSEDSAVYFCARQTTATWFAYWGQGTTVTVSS
monoclonal antibody 8H9, sequence (VL, as listed by the source limits assumed, chain 2 of 2): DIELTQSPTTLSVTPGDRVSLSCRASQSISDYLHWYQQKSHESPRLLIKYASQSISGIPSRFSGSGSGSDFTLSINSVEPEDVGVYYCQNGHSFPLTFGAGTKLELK

Substance	loss of binding after 48 h at 37 C [1]	loss of binding after 48 h at 37 C [2]	relative immunofluorescence remaining after 48 h [3]	OD [4]	OD [5]	OD [6]	OD [7]	OD [8]	OD [9]	OD [10]	OD [11]	OD [12]	concentration of 2E9 giving almost complete inhibition of 8H9 staining [13]	concentration of 2E9 without inhibition of 8H9 staining [13]	concentration of 2E9 giving complete inhibition of 8H9 staining [14]	concentration of 2E9 without inhibition of 8H9 staining [14]	OD [15]	concentration of 2E9 giving complete inhibition of 8H9-scFv-Fc staining [16]
anti-HLA A, B, C antibody HB-95	85%	89%	11%	–	–	–	–	–	–	–	–	–	–	–	–	–	–	–
rat anti-8H9 anti-idiotypic monoclonal antibody 2E9	–	–	–	< 0.5 od	< 0.5 od	< 0.5 od	< 0.5 od	< 0.5 od	< 0.5 od	< 0.5 od	< 0.5 od	< 0.5 od	10 µg/mL	2 µg/mL	10 µg/mL	2 µg/mL	1 to 2 od	1 µg/mL
